Paper PMC10457309

Target: HH-120 (IgM-like hACE2-Fc fusion protein) (UniProt Q9BYF1)
Experiment: SPR

## SARS-CoV-2 RBD (amino acids 316-512 of the S protein in the SARS-CoV-2 D614 strain) (from UniProt P0DTC2 316-512) (domain or fragment)
  Kd: 26.4 nM
